Reference: US20260022175A1 (Chugai, published 2026)
Blank lines part the entries; values can stand above or below the binder they belong to.

How the values were obtained:
[1] = target: T1, hCTLA4-His-BAP (human CTLA4 extracellular region with C-terminal His-tag and BAP-tag) (human, biotin on the BAP-tag); test: SPR 37C, ATP 10 µM
T1 construct: also called hCTLA4-His-Biotin

[2] = target: T1, hCTLA4-His-BAP (human CTLA4 …); test: SPR 37C, ATP 100 µM
[3] = target: T1, hCTLA4-His-BAP (human CTLA4 …); test: SPR 37C, no ATP, steady state model
[4] = target: T2, human CTLA4 (human); test: SPR Biacore T200, 37C, antibody captured, ATP 10 uM; ATP 10 µM
T2 construct: also called hCTLA4; hCTLA4-His-BAP

[5] = target: T2, human CTLA4; test: SPR Biacore T200, 37C, antibody captured, ATP 100 uM; ATP 100 µM
[6] = target: T2, human CTLA4; test: SPR Biacore T200, 37C, antibody captured, no ATP; no ATP; binding amount
[7] = target: T2, human CTLA4; test: SPR Biacore T200, 37C, antibody captured, ATP 1 uM; ATP 1 µM; binding amount
[8] = target: T2, human CTLA4; test: SPR Biacore T200, 37C, antibody captured, ATP 10 uM; ATP 10 µM; binding amount
[9] = target: T2, human CTLA4; test: SPR Biacore T200, 37C, antibody captured, ATP 100 uM; ATP 100 µM; binding amount
[10] = target: hFcγRIIIaV on hFcγRIIIaV-expressing Jurkat cells (human, UniProt P08637 17-254); test: cell-based or functional assay
[11] = target: T3, hFcγRIIaH on hFcγRIIaH-expressing Jurkat cells (human, UniProt P12318 34-317); test: cell-based or functional assay
T3 sequence (looked up): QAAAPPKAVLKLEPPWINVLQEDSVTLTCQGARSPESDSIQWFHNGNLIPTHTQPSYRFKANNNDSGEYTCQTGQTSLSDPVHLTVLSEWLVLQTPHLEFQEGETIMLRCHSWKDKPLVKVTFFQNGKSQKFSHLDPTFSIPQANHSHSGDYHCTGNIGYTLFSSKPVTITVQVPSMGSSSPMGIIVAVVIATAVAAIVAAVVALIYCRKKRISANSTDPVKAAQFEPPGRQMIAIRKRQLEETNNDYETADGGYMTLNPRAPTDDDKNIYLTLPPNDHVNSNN

[12] = target: T4, human FcγRIa extracellular domain (human, UniProt P12314 16-292); test: SPR Biacore 8K+; KD of G1d divided by KD of this antibody;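 further: antibodies captured on an anti-Fab-kappa streptavidin chip, soluble FcγR ectodomains flowed over, KD by steady-state fit for FcγRIIb and Langmuir kinetic model for the other receptors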
T4 construct: extracellular domain; also called hFcγR Ia; hFcγRIa

[13] = target: T5, human FcγRIIa H extracellular domain (human, UniProt P12318 34-217); test: as above
T5 construct: extracellular domain; also called hFcγR IIa H
T5 sequence (looked up): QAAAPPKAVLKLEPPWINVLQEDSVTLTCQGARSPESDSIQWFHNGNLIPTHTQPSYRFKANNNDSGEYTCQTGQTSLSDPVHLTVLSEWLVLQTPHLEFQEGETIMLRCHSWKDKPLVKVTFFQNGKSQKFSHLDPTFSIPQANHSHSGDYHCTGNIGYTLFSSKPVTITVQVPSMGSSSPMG

[14] = target: T6, human FcγRIIa R extracellular domain (human, UniProt P12318 34-217); test: as above
T6 construct: extracellular domain; also called hFcγR IIa R
T6 sequence (looked up): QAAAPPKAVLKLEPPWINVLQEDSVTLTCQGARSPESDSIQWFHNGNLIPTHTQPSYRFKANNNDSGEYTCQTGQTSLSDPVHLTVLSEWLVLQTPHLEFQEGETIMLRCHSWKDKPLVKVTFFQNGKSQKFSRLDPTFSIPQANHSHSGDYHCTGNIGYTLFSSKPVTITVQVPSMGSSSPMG

[15] = target: T7, human FcγRIIb extracellular domain (human, UniProt P31994 43-217); test: as above
T7 construct: extracellular domain; also called hFcγR IIb
T7 sequence (looked up): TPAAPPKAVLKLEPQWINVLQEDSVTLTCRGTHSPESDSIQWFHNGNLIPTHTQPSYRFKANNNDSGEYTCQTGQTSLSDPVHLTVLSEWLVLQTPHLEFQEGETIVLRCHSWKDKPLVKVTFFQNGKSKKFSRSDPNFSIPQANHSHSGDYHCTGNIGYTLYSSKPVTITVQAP

[16] = target: T8, human FcγRIIIa F extracellular domain (human, UniProt P08637 17-208); test: as above
T8 construct: extracellular domain; also called hFcγR IIIa F

[17] = target: T9, human FcγRIIIa V extracellular domain (human, UniProt P08637 17-208); test: as above
T9 construct: extracellular domain; also called hFcγR IIIa V

[18] = target: T5, human FcγRIIa H extracellular domain; test: SPR Biacore 8K+; KD for FcγRIIb divided by KD for this FcγR;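 further: antibodies captured on an anti-human Fab kappa SA chip with soluble human FcγR ectodomains flowed over, FcγRIIb KD from steady-state fit, other FcγR KD from Langmuir model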
[19] = target: T6, human FcγRIIa R extracellular domain; test: as above
[20] = target: T8, human FcγRIIIa F extracellular domain; test: as above
[21] = target: T9, human FcγRIIIa V extracellular domain; test: as above
[22] = target: T4, human FcγRIa extracellular domain; test: SPR Biacore 8K+, antibody captured, FcγR as analyte, 1:1 Langmuir model;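 further: antibodies captured on a streptavidin chip through a biotinylated anti-human Fab kappa reagent, with FcγR extracellular domains injected in pH 7.4 phosphate buffer at 25 °C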
[23] = target: T5, human FcγRIIa H extracellular domain; test: as above
[24] = target: T6, human FcγRIIa R extracellular domain; test: as above
[25] = target: T8, human FcγRIIIa F extracellular domain; test: as above
[26] = target: T9, human FcγRIIIa V extracellular domain; test: as above
[27] = target: T7, human FcγRIIb extracellular domain; test: SPR Biacore 8K+, antibody captured, FcγR as analyte, steady state affinity model
[28] = target: T10, human C1q protein (Calbiochem) (human, UniProt P02745 23-245; P02746 28-253; P02747 29-245); test: ELISA: antibody coated on the plate at the varied concentration, hC1q 3 µg/mL added, detected with HRP-conjugated anti-hC1q antibody, O.D (450-690nm)
T10 construct: bought; also called hC1q
T10 sequence (P02745 23-245 limits assumed, chain 1 of 3): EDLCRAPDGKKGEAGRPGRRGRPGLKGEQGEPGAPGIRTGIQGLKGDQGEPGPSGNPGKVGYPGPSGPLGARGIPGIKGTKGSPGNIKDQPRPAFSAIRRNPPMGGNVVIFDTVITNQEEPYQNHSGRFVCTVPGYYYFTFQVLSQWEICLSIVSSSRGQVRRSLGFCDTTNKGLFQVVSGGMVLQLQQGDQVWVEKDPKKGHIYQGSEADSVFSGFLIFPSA
T10 sequence (P02746 28-253 limits assumed, chain 2 of 3): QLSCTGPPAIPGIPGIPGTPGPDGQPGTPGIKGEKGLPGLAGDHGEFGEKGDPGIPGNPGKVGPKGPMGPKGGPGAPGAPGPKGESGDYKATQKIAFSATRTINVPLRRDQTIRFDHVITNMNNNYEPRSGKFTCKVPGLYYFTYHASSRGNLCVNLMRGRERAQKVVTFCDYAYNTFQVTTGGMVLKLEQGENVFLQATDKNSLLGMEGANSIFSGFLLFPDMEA
T10 sequence (P02747 29-245 limits assumed, chain 3 of 3): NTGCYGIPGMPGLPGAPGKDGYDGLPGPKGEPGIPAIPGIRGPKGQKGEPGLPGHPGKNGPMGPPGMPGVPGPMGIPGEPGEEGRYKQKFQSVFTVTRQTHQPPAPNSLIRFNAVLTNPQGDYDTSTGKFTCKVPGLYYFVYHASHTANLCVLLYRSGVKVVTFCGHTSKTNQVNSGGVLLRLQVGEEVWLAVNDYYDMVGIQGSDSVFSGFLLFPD

T8 sequence (P08637 17-208): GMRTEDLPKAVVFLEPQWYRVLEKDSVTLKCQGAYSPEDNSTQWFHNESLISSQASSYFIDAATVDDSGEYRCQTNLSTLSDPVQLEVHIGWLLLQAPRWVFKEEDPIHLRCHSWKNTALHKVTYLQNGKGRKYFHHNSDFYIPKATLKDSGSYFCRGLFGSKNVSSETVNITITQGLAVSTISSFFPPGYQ
T9 sequence (P08637 17-208 F176V limits assumed): as the sequence (P08637 17-208) above, with F160V counted along it
T1 sequence (chain, as listed by the source limits assumed): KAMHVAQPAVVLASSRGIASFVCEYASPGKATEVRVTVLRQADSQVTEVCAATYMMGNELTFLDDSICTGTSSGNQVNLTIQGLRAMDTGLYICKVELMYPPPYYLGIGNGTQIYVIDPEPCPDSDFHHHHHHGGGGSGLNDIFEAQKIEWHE
T2 sequence (chain, as listed by the source limits assumed): as above
T4 sequence (P12314 16-292): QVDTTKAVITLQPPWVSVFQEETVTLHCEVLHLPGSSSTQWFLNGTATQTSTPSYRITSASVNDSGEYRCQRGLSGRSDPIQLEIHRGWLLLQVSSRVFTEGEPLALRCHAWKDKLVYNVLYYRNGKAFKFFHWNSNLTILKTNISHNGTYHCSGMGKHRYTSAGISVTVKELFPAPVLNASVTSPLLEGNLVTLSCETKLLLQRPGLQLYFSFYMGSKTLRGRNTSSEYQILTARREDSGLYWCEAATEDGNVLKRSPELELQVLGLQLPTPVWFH
hFcγRIIIaV on hFcγRIIIaV-expressing Jurkat cells, sequence (P08637 17-254, form in doubt): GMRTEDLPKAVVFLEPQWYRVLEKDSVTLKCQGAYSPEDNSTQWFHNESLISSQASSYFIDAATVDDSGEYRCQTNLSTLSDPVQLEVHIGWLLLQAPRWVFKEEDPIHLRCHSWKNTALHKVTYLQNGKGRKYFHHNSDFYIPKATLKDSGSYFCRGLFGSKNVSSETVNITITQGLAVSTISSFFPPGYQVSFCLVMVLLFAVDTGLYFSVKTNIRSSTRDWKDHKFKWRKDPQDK

B1: 04H1077-G1m/04L1066-lam1 (antibody, human IgG1, lambda, V domains shown)
VH: EVQLVESGGDLVKPGGGLRLSCAASGFTFSSRTMNWVRQAPGKGLEWVSSISTRSGYIYYAESVKGRFTISRDNAKNSLYLQMNSLRAEDTAVYYCARYGKREDMLWVFDYWGQGTLVTVSS
VL: QSALTQPPSASGSPGQTVTISCDGPSTDVGDYNWVHWYQQHPGKAPKLMIYFTSKKPSGVPDRFSGSKSGNTASLTVSGLQAEDEADYFCSTYAAPLGPMFGGGTKLTVLG
Kd [1]: 280 nM
Kd [2]: 48 nM
Kd [3]: 6900 nM

B2: 04H1208-G1m/04L1086-lam1 (antibody, human IgG1, lambda, V domains shown)
VH: EVQLVESGGGLVKPGGSLRLSCAASGFTFSSKTMNWVRQAPGKGLEWVSSISTRSGYIYYARSVKGRFTISRDNAKNSLYLQMNSLRAEDTAVYYCARYGKREDMLWVFDYWGQGTLVTVSS
VL: QSALTQPPSASGSPGQTVTISCDGPSTGVGDYNYVHWYQQHPGKAPKLMIYFTSKKPSGVPDRFSGSKSGNTASLTVSGLQAEDEADYFCQTYAAPLGPMFGGGTKLTVLG
Kd [4]: 510 nM
Kd [5]: 91 nM
Binding to Human CTLA4 (binding amount per unit amount of antibody) [6]: 0.003
Binding to Human CTLA4 (binding amount per unit amount of antibody) [7]: 0.022
Binding to Human CTLA4 (binding amount per unit amount of antibody) [8]: 0.084
Binding to Human CTLA4 (binding amount per unit amount of antibody) [9]: 0.139

B3: 04H1207-G1m/04L1086-lam1 (antibody, human IgG1, lambda, V domains shown)
VH: EVQLVESGGGLVKPGGSLRLSCAASGFTFSSKTMNWVRQAPGKGLEWVSSISTRSGYIYYAESVKGRFTISRDNAKNSLYLQMNSLRAEDTAVYYCARYGKREDMLWVFDYWGQGTLVTVSS
VL: QSALTQPPSASGSPGQTVTISCDGPSTGVGDYNYVHWYQQHPGKAPKLMIYFTSKKPSGVPDRFSGSKSGNTASLTVSGLQAEDEADYFCQTYAAPLGPMFGGGTKLTVLG
notes: Human IgG1 constant region G1m (C-terminal Gly and Lys removed), human lambda chain lam1
Kd [4]: 400 nM
Kd [5]: 76 nM
Binding to Human CTLA4 (binding amount per unit amount of antibody) [6]: 0.01
Binding to Human CTLA4 (binding amount per unit amount of antibody) [7]: 0.037
Binding to Human CTLA4 (binding amount per unit amount of antibody) [8]: 0.111
Binding to Human CTLA4 (binding amount per unit amount of antibody) [9]: 0.166

Further lines, results first:

Kd [4]: 46 nM
Kd [5]: 14 nM
Binding to Human CTLA4 (binding amount per unit amount of antibody) [6]: 0.008
Binding to Human CTLA4 (binding amount per unit amount of antibody) [7]: 0.09
Binding to Human CTLA4 (binding amount per unit amount of antibody) [8]: 0.152
Binding to Human CTLA4 (binding amount per unit amount of antibody) [9]: 0.159
B4: 04H1382-G1m/04L1086-lam1 (antibody, human IgG1, lambda, V domains shown)
VH: EVQLVESGGGLVKPGGSLRLSCAASGFTFSSKTMNWVRQAPGKGLEWVSSISTQSHYIYYARSVKGRFTISRDNAKNSLYLQMNSLRAEDTAVYYCARYGKREDMLWVFDYWGQGTLVTVSS
VL: QSALTQPPSASGSPGQTVTISCDGPSTGVGDYNYVHWYQQHPGKAPKLMIYFTSKKPSGVPDRFSGSKSGNTASLTVSGLQAEDEADYFCQTYAAPLGPMFGGGTKLTVLG

EC50 value (hFcγRIIIaV ADCC Reporter Bioassay, Hepa1-6/hEREG target cells) [10]: 0.00208 µg/mL
EC50 value (hFcγRIIaH ADCP Reporter Bioassay, Hepa1-6/hEREG target cells) [11]: 0.0324 µg/mL
Relative value to KD between G1d and hFcgRs [12]: 21.3
Relative value to KD between G1d and hFcgRs [13]: 6.9
Relative value to KD between G1d and hFcgRs [14]: 10.3
Relative value to KD between G1d and hFcgRs [15]: 3.8
Relative value to KD between G1d and hFcgRs [16]: 99.1
Relative value to KD between G1d and hFcgRs [17]: 23.6
A/I ratio (KD for FcγRIIb divided by KD for each FcγR) [18]: 16.5
A/I ratio (KD for FcγRIIb divided by KD for each FcγR) [19]: 16.5
A/I ratio (KD for FcγRIIb divided by KD for each FcγR) [20]: 89.3
A/I ratio (KD for FcγRIIb divided by KD for each FcγR) [21]: 176
Kd [22]: 0.00423 nM
Kd [23]: 162 nM
Kd [24]: 161 nM
Kd [25]: 29.8 nM
Kd [26]: 15.2 nM
Kd [27]: 2670 nM
binding result [28]: no binding (tested: 30 µg/mL)
B5: H240-GASDALIE/L73-k0 (antibody, human IgG1, kappa)
heavy: QDQLVQSGAEVKKPGASVKVSCKASGFNIKDTYIQWVRQAPGQGLEWMGRIDPLRKQTKYREKFEGRVTITADTSTNTAYMELSSLRSEDTAVYYCVRSGREFDYWGQGTLVTVSSASTKGPSVFPLAPSSKSTSGGTAALGCLVKDYFPEPVTVSWNSGALTSGVHTFPAVLQSSGLYSLSSVVTVPSSSLGTQTYICNVNHKPSNTKVDKKVEPKSCDKTHTCPPCPAPELLAGPDVFLFPPKPKDTLMISRTPEVTCVVVDVSHEDPEVKFNWYVDGVEVHNAKTKPREEQYNSTYRVVSVLTVLHQDWLNGKEYKCKVSNKALPLPEEKTISKAKGQPREPQVYTLPPSRDELTKNQVSLTCLVKGFYPSDIAVEWESNGQPENNYKTTPPVLDSDGSFFLYSKLTVDKSRWQQGNVFSCSVMHEALHNHYTQKSLSLSP
light: DIQMTQSPSSLSASVGDRVTITCRASQDIHKYIAWYQQKPGQAPRLLIQYTSTLQPGVPSRFSGSGSGTDYTFTISSLQPEDIATYYCLQYEQLRTFGGGTKVEIKRTVAAPSVFIFPPSDEQLKSGTASVVCLLNNFYPREAKVQWKVDNALQSGNSQESVTEQDSKDSTYSLSSTLTLSKADYEKHKVYACEVTHQGLSSPVTKSFNRGEC
